Drawing on PMC8065580, “A Lipid Bodies-Associated Galactosyl Hydrolase Is Involved in Triacylglycerol Biosynthesis and Galactolipid Turnover in the Unicellular Green Alga Chlamydomonas reinhardtii” (Plants, 2021), this text covers Km and kcat for one protein.

Substrate in the data set: O=[N+]([O-])c1ccccc1O[C@@H]1O[C@H](CO)[C@H](O)[C@H](O)[C@H]1O
As to the kind of experiment: purified protein. Format: biochemical, Chlamydomonas reinhardtii. The following applies: 30 mM magnesium chloride buffer, pH 7.3, 37 °C, MBP fusion.

B1: CrGH (Chlamydomonas reinhardtii) (protein)
chain: MTGSGKPAANKATANGDGEPVRFLKGAAISVWQNSGDDDSNWTRFAKSRWPFRSFGVSAIRGKYNIDKCSDFWNNYERDIKLAADIGSTTFRFSIEWARIEPLRGVFDMEAVHRYHQMLDCMAAHGLVPNATLWHFVHPTWFEQAGGWTKEENIPAFVRFSVKCFEWFKDKITLWATFNEPTCYMFLAFIVGIAPPGRIMDLVTAGRMLSTMLKAHTATYRAIKAAPGGQAAQVGLVSHHITFEPQGTGILYGVSKVLSDWMTYWWGWDVVHHWMLTGEFVWKLPVLGVWQRWQDPAGRPPCDWWGINYYSRGIFSWYLAPSCRESEVMTDMYYPIYPEGLYKCIKRCSEFGIPMYITETGIADARDDRRALMIDSYMKATLRAVAEGCDVRGLYYWTLLDNLEWATGYTMKFGLYAWEPDGSVDRKLKEGSKTLVRYFKTLPDDLAGVRAAARQVQGQLGEDLGVEAALEEEGVTRVAAGGKLVVGEAAGKGGEAEGRKAVGMVAIG
notes: full-length CDS (1527-bp ORF, about 508 residues) in pMAL-c5x, MBP fusion, about 98 kDa, E. coli BL21(DE3), amylose resin; tag cleavage not mentioned; GH family 1, motifs TFNEP and ITETG
As to B1, the Km is 13.98 µM and the kcat was determined as 3.62 s⁻¹.
